Source: patent US20250361268A1, “NOVEL ANTI-INFLAMMATORY PEPTIDE AND USE THEREOF” (NOVACELL TECHNOLOGY INC., priority 2022, published 2025)

Target: T1, FPR1 (UniProt P21462 1-350, limits assumed)
T1 sequence (looked up): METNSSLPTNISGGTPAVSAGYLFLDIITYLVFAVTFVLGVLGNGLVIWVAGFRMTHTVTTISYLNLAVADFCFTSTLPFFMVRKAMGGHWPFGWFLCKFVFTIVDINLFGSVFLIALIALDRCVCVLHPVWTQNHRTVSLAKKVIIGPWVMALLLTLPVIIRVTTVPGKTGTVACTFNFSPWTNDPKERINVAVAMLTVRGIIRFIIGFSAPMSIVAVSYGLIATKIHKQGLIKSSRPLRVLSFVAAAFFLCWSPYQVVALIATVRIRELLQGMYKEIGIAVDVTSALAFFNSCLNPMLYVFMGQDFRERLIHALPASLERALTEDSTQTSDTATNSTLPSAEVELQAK
Assay: cell-based or functional assay

B1: peptide of SEQ ID NO 77 (peptide)
peptide: RWRYWYM
HELM: PEPTIDE1{R.W.R.Y.W.Y.[dM].[am]}$$$$V2.0; N-terminus assumed
SMILES: CSCC[C@@H](NC(=O)[C@H](Cc1ccc(O)cc1)NC(=O)[C@H](Cc1c[nH]c2ccccc12)NC(=O)[C@H](Cc1ccc(O)cc1)NC(=O)[C@H](CCCNC(=N)N)NC(=O)[C@H](Cc1c[nH]c2ccccc12)NC(=O)[C@@H](N)CCCNC(=N)N)C(N)=O
  EC50 for [Ca2+]: > 10 µM

B2: peptide of SEQ ID NO 10 (peptide)
peptide: KMKYKVM
HELM: PEPTIDE1{[ac].K.M.K.Y.K.V.[dM].[am]}$$$$V2.0
SMILES: CSCC[C@H](NC(=O)[C@H](CCCCN)NC(C)=O)C(=O)N[C@@H](CCCCN)C(=O)N[C@@H](Cc1ccc(O)cc1)C(=O)N[C@@H](CCCCN)C(=O)N[C@H](C(=O)N[C@H](CCSC)C(N)=O)C(C)C
  EC50 for [Ca2+]: > 10 µM

B3: peptide of SEQ ID NO 8 (peptide)
peptide: RMRYKVM
HELM: PEPTIDE1{[CCCCCCCC(=O)[*:2]].R.M.R.Y.K.V.[dM].[am]}$$$$V2.0
SMILES: CCCCCCCC(=O)N[C@@H](CCCNC(=N)N)C(=O)N[C@@H](CCSC)C(=O)N[C@@H](CCCNC(=N)N)C(=O)N[C@@H](Cc1ccc(O)cc1)C(=O)N[C@@H](CCCCN)C(=O)N[C@H](C(=O)N[C@H](CCSC)C(N)=O)C(C)C
  EC50 for [Ca2+]: > 10 µM

B4: peptide of SEQ ID NO 132 (peptide)
peptide: IKFKVM
HELM: PEPTIDE1{I.K.F.K.V.[dM].[am]}$$$$V2.0; N-terminus assumed
SMILES: CC[C@H](C)[C@H](N)C(=O)N[C@@H](CCCCN)C(=O)N[C@@H](Cc1ccccc1)C(=O)N[C@@H](CCCCN)C(=O)N[C@H](C(=O)N[C@H](CCSC)C(N)=O)C(C)C
  EC50 for [Ca2+]: > 10 µM

B5: peptide of SEQ ID NO 130 (peptide)
peptide: IKKWMM
HELM: PEPTIDE1{I.K.K.W.M.[dM].[am]}$$$$V2.0; N-terminus assumed
SMILES: CC[C@H](C)[C@H](N)C(=O)N[C@@H](CCCCN)C(=O)N[C@@H](CCCCN)C(=O)N[C@@H](Cc1c[nH]c2ccccc12)C(=O)N[C@@H](CCSC)C(=O)N[C@H](CCSC)C(N)=O
  EC50 for [Ca2+]: > 10 µM

B6: peptide of SEQ ID NO 131 (peptide)
peptide: IKFKYM
HELM: PEPTIDE1{I.K.F.K.Y.[dM].[am]}$$$$V2.0; N-terminus assumed
SMILES: CC[C@H](C)[C@H](N)C(=O)N[C@@H](CCCCN)C(=O)N[C@@H](Cc1ccccc1)C(=O)N[C@@H](CCCCN)C(=O)N[C@@H](Cc1ccc(O)cc1)C(=O)N[C@H](CCSC)C(N)=O
  EC50 for [Ca2+]: > 10 µM

B7: peptide of SEQ ID NO 145 (peptide)
peptide: IKYKPM
HELM: PEPTIDE1{[CCCCCCCC(=O)[*:2]].I.K.Y.K.P.[dM].[am]}$$$$V2.0
SMILES: CCCCCCCC(=O)N[C@H](C(=O)N[C@@H](CCCCN)C(=O)N[C@@H](Cc1ccc(O)cc1)C(=O)N[C@@H](CCCCN)C(=O)N1CCC[C@H]1C(=O)N[C@H](CCSC)C(N)=O)[C@@H](C)CC
  EC50 for [Ca2+]: > 10 µM

B8: peptide of SEQ ID NO 88 (peptide)
peptide: MRYWYM
HELM: PEPTIDE1{[CCCCCCCC(=O)[*:2]].M.R.Y.W.Y.[dM].[am]}$$$$V2.0
SMILES: CCCCCCCC(=O)N[C@@H](CCSC)C(=O)N[C@@H](CCCNC(=N)N)C(=O)N[C@@H](Cc1ccc(O)cc1)C(=O)N[C@@H](Cc1c[nH]c2ccccc12)C(=O)N[C@@H](Cc1ccc(O)cc1)C(=O)N[C@H](CCSC)C(N)=O
  EC50 for [Ca2+]: > 10 µM

B9: peptide of SEQ ID NO 126 (peptide)
peptide: MRYYYM
HELM: PEPTIDE1{[ac].M.R.Y.Y.Y.[dM].[am]}$$$$V2.0
SMILES: CSCC[C@H](NC(C)=O)C(=O)N[C@@H](CCCNC(=N)N)C(=O)N[C@@H](Cc1ccc(O)cc1)C(=O)N[C@@H](Cc1ccc(O)cc1)C(=O)N[C@@H](Cc1ccc(O)cc1)C(=O)N[C@H](CCSC)C(N)=O
  EC50 for [Ca2+]: > 10 µM

B10: peptide of SEQ ID NO 12 (peptide)
peptide: KMKYKVM
HELM: PEPTIDE1{[CCCCCCCC(=O)[*:2]].K.M.K.Y.K.V.[dM].[am]}$$$$V2.0
SMILES: CCCCCCCC(=O)N[C@@H](CCCCN)C(=O)N[C@@H](CCSC)C(=O)N[C@@H](CCCCN)C(=O)N[C@@H](Cc1ccc(O)cc1)C(=O)N[C@@H](CCCCN)C(=O)N[C@H](C(=O)N[C@H](CCSC)C(N)=O)C(C)C
  EC50 for [Ca2+]: > 10 µM

B11: peptide of SEQ ID NO 152 (peptide)
peptide: RWRYRIM
HELM: PEPTIDE1{R.W.R.Y.R.I.[dM].[am]}$$$$V2.0; N-terminus assumed
SMILES: CC[C@H](C)[C@H](NC(=O)[C@H](CCCNC(=N)N)NC(=O)[C@H](Cc1ccc(O)cc1)NC(=O)[C@H](CCCNC(=N)N)NC(=O)[C@H](Cc1c[nH]c2ccccc12)NC(=O)[C@@H](N)CCCNC(=N)N)C(=O)N[C@H](CCSC)C(N)=O
  EC50 for [Ca2+]: > 10 µM

B12: peptide of SEQ ID NO 91 (peptide)
peptide: MKYWYM
HELM: PEPTIDE1{[CCCC(=O)[*:2]].M.K.Y.W.Y.[dM].[am]}$$$$V2.0
SMILES: CCCC(=O)N[C@@H](CCSC)C(=O)N[C@@H](CCCCN)C(=O)N[C@@H](Cc1ccc(O)cc1)C(=O)N[C@@H](Cc1c[nH]c2ccccc12)C(=O)N[C@@H](Cc1ccc(O)cc1)C(=O)N[C@H](CCSC)C(N)=O
  EC50 for [Ca2+]: > 10 µM

B13: peptide of SEQ ID NO 9 (peptide)
peptide: KMKYKVM
HELM: PEPTIDE1{K.M.K.Y.K.V.[dM].[am]}$$$$V2.0; N-terminus assumed
SMILES: CSCC[C@H](NC(=O)[C@@H](N)CCCCN)C(=O)N[C@@H](CCCCN)C(=O)N[C@@H](Cc1ccc(O)cc1)C(=O)N[C@@H](CCCCN)C(=O)N[C@H](C(=O)N[C@H](CCSC)C(N)=O)C(C)C
  EC50 for [Ca2+]: > 10 µM

B14: peptide of SEQ ID NO 153 (peptide)
peptide: RWRYRTM
HELM: PEPTIDE1{R.W.R.Y.R.T.[dM].[am]}$$$$V2.0; N-terminus assumed
SMILES: CSCC[C@@H](NC(=O)[C@@H](NC(=O)[C@H](CCCNC(=N)N)NC(=O)[C@H](Cc1ccc(O)cc1)NC(=O)[C@H](CCCNC(=N)N)NC(=O)[C@H](Cc1c[nH]c2ccccc12)NC(=O)[C@@H](N)CCCNC(=N)N)[C@@H](C)O)C(N)=O
  EC50 for [Ca2+]: > 10 µM

B15: peptide of SEQ ID NO 128 (peptide)
peptide: IKFWYM
HELM: PEPTIDE1{I.K.F.W.Y.[dM].[am]}$$$$V2.0; N-terminus assumed
SMILES: CC[C@H](C)[C@H](N)C(=O)N[C@@H](CCCCN)C(=O)N[C@@H](Cc1ccccc1)C(=O)N[C@@H](Cc1c[nH]c2ccccc12)C(=O)N[C@@H](Cc1ccc(O)cc1)C(=O)N[C@H](CCSC)C(N)=O
  EC50 for [Ca2+]: > 10 µM

B16: peptide of SEQ ID NO 79 (peptide)
peptide: WRYWYM
HELM: PEPTIDE1{W.R.Y.W.Y.[dM].[am]}$$$$V2.0; N-terminus assumed
SMILES: CSCC[C@@H](NC(=O)[C@H](Cc1ccc(O)cc1)NC(=O)[C@H](Cc1c[nH]c2ccccc12)NC(=O)[C@H](Cc1ccc(O)cc1)NC(=O)[C@H](CCCNC(=N)N)NC(=O)[C@@H](N)Cc1c[nH]c2ccccc12)C(N)=O
  EC50 for [Ca2+]: > 10 µM

B17: peptide of SEQ ID NO 84 (peptide)
peptide: RMRYWYM
HELM: PEPTIDE1{[CCCCCCCC(=O)[*:2]].R.M.R.Y.W.Y.[dM].[am]}$$$$V2.0
SMILES: CCCCCCCC(=O)N[C@@H](CCCNC(=N)N)C(=O)N[C@@H](CCSC)C(=O)N[C@@H](CCCNC(=N)N)C(=O)N[C@@H](Cc1ccc(O)cc1)C(=O)N[C@@H](Cc1c[nH]c2ccccc12)C(=O)N[C@@H](Cc1ccc(O)cc1)C(=O)N[C@H](CCSC)C(N)=O
  EC50 for [Ca2+]: > 10 µM

B18: peptide of SEQ ID NO 155 (peptide)
peptide: RWRYNYM
HELM: PEPTIDE1{R.W.R.Y.N.Y.[dM].[am]}$$$$V2.0; N-terminus assumed
SMILES: CSCC[C@@H](NC(=O)[C@H](Cc1ccc(O)cc1)NC(=O)[C@H](CC(N)=O)NC(=O)[C@H](Cc1ccc(O)cc1)NC(=O)[C@H](CCCNC(=N)N)NC(=O)[C@H](Cc1c[nH]c2ccccc12)NC(=O)[C@@H](N)CCCNC(=N)N)C(N)=O
  EC50 for [Ca2+]: > 10 µM

B19: peptide of SEQ ID NO 90 (peptide)
peptide: MKYWYM
HELM: PEPTIDE1{[ac].M.K.Y.W.Y.[dM].[am]}$$$$V2.0
SMILES: CSCC[C@H](NC(C)=O)C(=O)N[C@@H](CCCCN)C(=O)N[C@@H](Cc1ccc(O)cc1)C(=O)N[C@@H](Cc1c[nH]c2ccccc12)C(=O)N[C@@H](Cc1ccc(O)cc1)C(=O)N[C@H](CCSC)C(N)=O
  EC50 for [Ca2+]: > 10 µM

B20: peptide of SEQ ID NO 129 (peptide)
peptide: IKFWMM
HELM: PEPTIDE1{I.K.F.W.M.[dM].[am]}$$$$V2.0; N-terminus assumed
SMILES: CC[C@H](C)[C@H](N)C(=O)N[C@@H](CCCCN)C(=O)N[C@@H](Cc1ccccc1)C(=O)N[C@@H](Cc1c[nH]c2ccccc12)C(=O)N[C@@H](CCSC)C(=O)N[C@H](CCSC)C(N)=O
  EC50 for [Ca2+]: > 10 µM
